Test results reported in IntAct's records for PubMed 19740107.

B1: Amphiregulin (Homo sapiens), P15514 (parent)
chain: MRAPLLPPAPVVLSLLILGSGHYAAGLDLNDTYSGKREPFSGDHSADGFEVTSRSEMSSGSEISPVSEMPSSSEPSSGADYDYSEEYDNEPQIPGYIVDDSVRVEQVVKPPQNKTESENTSDKPKRKKKGGKNGKNRRNRKKKNPCNAEFQNFCIHGECKYIEHLEAVTCKCQQEYFGERCGEKSMKTHSMIDSSLSKIALAAIAAFMSAVILTAVAVITVQLRRQYVRKYEGEAEERKKLRQENGNVHAIA

Variants of: B1
Settings: with S100A4, P26447
Sequence of S100A4, P26447 (P26447 whole entry, looked up): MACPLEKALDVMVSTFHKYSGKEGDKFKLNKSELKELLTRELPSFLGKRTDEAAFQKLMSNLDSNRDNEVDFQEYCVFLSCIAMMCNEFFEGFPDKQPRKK

| effect of a mutation on the interaction | Variant |
| --- | --- |
| decreasing interaction | MRAPLLPPAPVVLSLLILGSGHYAAGLDLNDTYSGKREPFSGDHSADGFEVTSRSEMSSGSEISPVSEMPSSSEPSSGADYDYSEEYDNEPQIPGYIVDDSVRVEQVVKPPQNKTESENTSDKPKRKKKGGKNGKNRRNRKKKNPCNAEFQNFCIHGECKYIEHLEAVTCKLQQEYFGERCGEKSMKTHSMIDSSLSKIALAAIAAFMSAVILTAVAVITVQLRRQYVRKYEGEAEERKKLRQENGNVHAIA [C172L] |
| decreasing interaction | MRAPLLPPAPVVLSLLILGSGHYAAGLDLNDTYSGKREPFSGDHSADGFEVTSRSEMSSGSEISPVSEMPSSSEPSSGADYDYSEEYDNEPQIPGYIVDDSVRVEQVVKPPQNKTESENTSDKPKRKKKGGKNGKNRRNRKKKNPCNAEFQNFCIHGECKYIEHLEAVTAKCQQEYFGERCGEKSMKTHSMIDSSLSKIALAAIAAFMSAVILTAVAVITVQLRRQYVRKYEGEAEERKKLRQENGNVHAIA [C170A] |
| decreasing interaction | MRAPLLPPAPVVLSLLILGSGHYAAGLDLNDTYSGKREPFSGDHSADGFEVTSRSEMSSGSEISPVSEMPSSSEPSSGADYDYSEEYDNEPQIPGYIVDDSVRVEQVVKPPQNKTESENTSDKPKRKKKGGKNGKNRRNRKKKNPCNAEFQNFCIHGECKYIEHLEAVTCACQQEYFGERCGEKSMKTHSMIDSSLSKIALAAIAAFMSAVILTAVAVITVQLRRQYVRKYEGEAEERKKLRQENGNVHAIA [K171A] |

Variants of: B1
Settings: with S100A4, P26447
Remark: another data set of the same source

| effect of a mutation on the interaction | Variant |
| --- | --- |
| decreasing interaction | MRAPLLPPAPVVLSLLILGSGHYAAGLDLNDTYSGKREPFSGDHSADGFEVTSRSEMSSGSEISPVSEMPSSSEPSSGADYDYSEEYDNEPQIPGYIVDDSVRVEQVVKPPQNKTESENTSDKPKRKKKGGKNGKNRRNRKKKNPCNAEFQNLCIHGECKYIEHLEAVTCKCQQEYFGERCGEKSMKTHSMIDSSLSKIALAAIAAFMSAVILTAVAVITVQLRRQYVRKYEGEAEERKKLRQENGNVHAIA [F153L] |
| decreasing interaction | MRAPLLPPAPVVLSLLILGSGHYAAGLDLNDTYSGKREPFSGDHSADGFEVTSRSEMSSGSEISPVSEMPSSSEPSSGADYDYSEEYDNEPQIPGYIVDDSVRVEQVVKPPQNKTESENTSDKPKRKKKGGKNGKNRRNRKKKNPCNAEFQNFAIHGECKYIEHLEAVTCKCQQEYFGERCGEKSMKTHSMIDSSLSKIALAAIAAFMSAVILTAVAVITVQLRRQYVRKYEGEAEERKKLRQENGNVHAIA [C154A] |
